Laboratory results as given in the nanobody polyreactivity screen of Harvey et al. (2022).

Test: yeast display, Sf9 membrane polyspecificity reagent, FACS + sequencing; frameworks hold sequencing errors
How it was run: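 Genes from sorted yeast were amplified by colony PCR, read by MiSeq 2 × 250 sequencing and filtered on CDR length. These cells carried a synthetic nanobody library in Saccharomyces cerevisiae BJ5465 and were sorted by FACS into low and high (top ~1%) gates on anti-HA and streptavidin fluorescence. Polyreactivity is labelled according to the gate of origin.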

Sequence | polyreactivity (PSR sort gate)
QVQLVESGGGLVQAGGSLRLSCAASGRTFYTVYAMGWYRQAPGKERELVAAITRSGGSTYYADSVKGRFTISRDNAKNTLYLQMNSLKPEDTAVYYCAAAPPLAGLGGYYWGQGTQVTVSS | high polyreactivity
QVQLVESGGGLVQAGGSLRLSCAASGSIFVSNVMGWYRQSPGKERELVAAISSSGGRTNYADSVKGRFTISRDNAKNTVYLQMNSLKPEDTAVYYCAKAGRYANLPYGYWGQGTQVTVSS | high polyreactivity
QVQLVESGGGLVQAGGSLRLSCAASGRTFGANAMGWYRQAPGKERELVAGITSSGGSTSYADSVKGRFTISRDNAKNTVYLQMNSLKPEDTAVYYCAKDVYQHIFDVILGGYDSWGQGTQVTVSS | low polyreactivity
QVQLVESGGGLVQAGGSLRLSCAASGIIFPYNAMGWYRQAPGKERELVAAITYRDGSTYYADSVKGRFTISRDNAKNTVYLQMNSLKPEDTAVYYCAADRYVYWDLYGYWGQGTQVTVSS | low polyreactivity
QDQHVESGGGIVQAGGSLRLICAASGRTFANNAMGWYRQAPGKERELVAAISWSGGSTYYADSVKGRFTISRDNAKNTVYLQMNSLKPEDTAVYYCAADSPRYGGYGYWGQGTHVTVSS | low polyreactivity
QVQLVESGGGLVQAGGSLRLSCAASGYIFGHYTMGWYRPAPRKERELVAGITSGTRTYYADSVKGRFTISRDNAKNTVYLQMNSRKPDDTAVYYCAKRGPVRTQYTYYYWGQGTQVTVSS | high polyreactivity
QVQLVESGGGLVQAGGSLRLSCAASGFIFTPYAMGWYRQAPGKERELVAAISRSAGSTYYADSVKGRFTISRDNAKNTVYLQMNSLKPEDTAVYYCAADSLTYIAYDYWGQGTQVTVSS | high polyreactivity
QVQLVDSGGGLVQAGGSLLLSCAASGSISYQNAMGWYRQAPGKERELVAANSGDGDSTYYADSVKGRFTISRDNAKNTVYLQMNRLKPEDTAVYYCAAEPNVYFSVFVLFTSDYWGQGTLVTVSS | low polyreactivity
QVQLVESGGGLVQAGGSLRLSCAASGFILRYNAMGWYRQAPGKERELVAAISYTGDRTYYADSVKGRFTISRDNAKNTVYLQMNSLKPEDTAVYYCNAVTYGSYYYWGQGTQVTVSS | high polyreactivity
QVQLVESGGGLVQAGGSLRLSCAATGRIFDYNVMGWSRQAPGKERELVADINGCGGRTNYADSVKGRFTISRDNAKNSVYLQMNSLKPEDTAVYDCAAEWYSYGARSSYGGSRNDYWGQGSQVTVSS | low polyreactivity
QVQLVESGGGLVQAGGSLRLSCAASGSIFYQYGMGWYRQAPGKERELVAAITYDDDSTYYADSVKGRFTISRDNAKNTVYLQMNSLKPEDTAVYYCAAYYYKLEYDYWGQGTQVTVSS | high polyreactivity
QVQLVESGGGLVQAGGSLRLSCAASGATFPVYAMGWYRQAPGKEWELVAAISRSGASTYYADSVKGRFTISRDNAKNTVYLQMNSLKPEDTAVYYCARGYQGRLKYEYWGQGTQVNVSS | low polyreactivity
QVQLVESGGGLVQAGGSLRLSCAASGYTIYYYAMGWYRQAPGKERELVARITSGGSTYYADSVKGRFTISRDNAKNTVYLQMNSLKPVDTAVYYCNVEVSVEVAYWGQGTQVTVSS | low polyreactivity
QVQLVESGGGLVQAGGSLRLSCAASGSIFYQYAMGWYRQAPGKEREMLAAIRYSGSSTYYADSVKGRFTISRDNAKNTVYLQMNSLKPEDTEVYYCGKTLRRRRGDRRYRVIEMDHWGQGTQVTVSS | low polyreactivity
QVQLVESGVRVVQAGGSLRLRCAASGFTFRDYTMGWYRQAPGKERELVAAISRSGGSTYYADSVKGRFTISRDNAKNTVDLQMNSLKPEDTAVYYCAALWHAVSYADYDYWGQGTQVTVSS | high polyreactivity
QVQLVESGGGLVQAGGSLRLSCAASGLIFGGYAMGWYRQAPGKERELVAAISWDDGDTYYADSVKGRFTISRDNAKNTVYLQMNSLKPEDSAVYYCAAESLSGAHGYWGQGTQVTVSS | low polyreactivity
QVQLVESGGGLVQAGGSLRLSCAASGSTFGIYAMGWYRQAPGKERELVAAISWRGGRTYYADSVKGRFTISRDNAKNTVYLQMNSLKPEDTAVYYCAADYRYLWEGYDYWGQGTQVTVSS | low polyreactivity
QVQLVESGGGLVQAGGSLRLSCAASGSTFGANAMGWYRQAPGKERELVAVITWNDGSTYYADSVKGRFTISRDNAKNTVYLQMNSLKPEDTAVYYCATDPTSGRFYYWGQGTQVTVSS | high polyreactivity
QVQLVESGGGLVQAGGSLRLSCAASGSTFGANAMGWYRQAPGKEREFVAAISRSGVRTYYADSVKGRFTISRDNAKNTVYVQMNSLKPEDSAVYYCAADGYWLTYTRYDYWGQGTQVTVSS | low polyreactivity
QVQLVESGGGLVQAGGSLRLSCAASGRIIRYYAMGWYRPAPGKERELVAGITTGGGSTYYADSVKGRFTISRDNAKNTVYLQMNSLKPEDTAVYYCAARYYTTYYWGQGTQVTVSS | high polyreactivity
QVQLVESGGGLVQAGGSLRLSCAASGFTLGPYMGWYRQAPGKERELVAAISGGGGRTYYADSVKGRFTISRDNAKNTVYLQMNSLKPEDTSVYYCAAAYRSYKQFYSYGYEYWGQGTQVTVSS | high polyreactivity
QVQHVESGGGLVQAGGSLRLSCAASGITFYRYAMGWYIQAPGKERELVAAINASGGSTYYADSVKGRFTISRDKAKNTVYLQMNSLKPEDTAVYYCAADRVSWVKHYYWGQGTKVTVSS | high polyreactivity

Sequence | polyreactivity (PSR sort gate)
QVHLVESGGGLVQAGGRLRLSCAASGSIFRLYAMGWYRQAPGKERELVARITTGGSTNYADSVKGRFTISLDNAKNTVYFQMNSLKPEDTAVYYCNGGVLVTAQMGWQKYSYWGQGSQVTVSS | high polyreactivity
QVQLVESGGGLVQAGGSLRLSSAASGRILKYYAMGWYRQAPGKERELVAAIGSGGSTYYADSVKGRFTISRDNAKNTVYLQMNSLKPDDTAVYYCNAEDQWGGYGYDYWGQGTQLTVSS | low polyreactivity
QVQLVESGGGLVQAGCSLRLSCAASGITFNFYAMGWYRQAPGKERELVAAITSSGASTNYADSVKGRFTISRDNAKNTVYLQMNSLYPEDTAVYYCNAQRSRHSLYPVNELYYWGQGTQVTVTS | low polyreactivity
QVQLVESGGGLVQAGGSLRLSCAASGRIFGDNAMGWYRQAPGKERELVADITSSGGSTHYADSVKGRFTISRDNAKNNVYLQLNSLKPEDTEVYYCNADDYVYFDDGDYWGQGTQVTVSS | low polyreactivity
QVQLVESGGGLVQARGSLRLSCAASGSTLRRYAMGWYRQAPGKERELVAAISGSGDSTYYADSVKGRFTISRDNAKNTVYLQMNSLKPEDTAVYYCNAVYAFNGYDYWGQGSQVTVSS | low polyreactivity
QVQLVESGGGLVQAGGSLRLSCAASGGIFRNYAMGWYRQAPGKERELVARISSAGSTNYADSVKGRFTISRDNAKNTVYLQMNSLKPEDTAVYSCAAYPYVGYVSFSAYDYWGQGTQVTVSS | low polyreactivity
QVQLVESGGGIVQAGGSLRISSAASGSIFGYYAMGWYIQEPGKERELVADITVRGGSTYYADSVKGRFTISRDNAKNTVYLQMNSLKPEDTAVYYCAAAQYTFWDGDSWGQGTQVTVSS | high polyreactivity
QVHLVESGGGLVQAGGSLRLSCAASGFTFGVYAMGWYRQAPGKEREFVAAISTTVGSTYYADSVKGRFTISRDNAKNTVYLQLNSLKPEDTAVYYCAAEYTGYINYYIYEYWGQGTQVTVSS | low polyreactivity
QVQLVESGGGLVQAGGSLRLSCAASGFTFGSYAMGWYRQAPGKERELVAGITFSTGTTSYADSVKGRFTISRDNAKTTVYLQMNSLKPEDTAVYYCAADLIPNEDYWGQGTQVTVSS | low polyreactivity
QVQLVESGGGLVQAGGSLRLSCAASGSILFTNAMGWYRQAPGKERELVAAISSGGSTYYADSVKGRFTISRDNAKNTVYLQMNSLKPEDSAVYYCAADHLNVGREYVEYDYWGQGTQVTVSS | low polyreactivity
QVQLVESGGGLVQAGGSLRLSCAASGSTFGRNAMGWYRQAPGKERELVASITSRGTSTYADSVKGRFTISRDNAKNTVYLQMNSLKPEDTAVYYCAAGVISYRRRSYYYWGQGTQVTVSS | high polyreactivity
QVQLVESGGGLVQAGGSLRLSCAASGSISSGYFMGWYRQAPGKERELVAAISFSGGSTYYADSVKGRFTISRDNAKNTVYLQMNSLKPEDTAVYYCNALFWYRYFSGVSQDYDYWGQGTQVTVSS | high polyreactivity
KVQLVESGGGLVQAGGSLRLSCDASGSTFQYYTMGWYRQAPGKESELVAAISADGGNTYYADSVKGRFTISRDNAKNTVYLQMNSLKPEDTAVYYCNADVSLTLRTLVPGRAYDYWGQGTQVTVSS | low polyreactivity
QVQLVESGGGLVQAGGSLRLSCAASGSTFDGYAMGWYRQAPGKERELVAAISRSGGRTYNADSVKGRFTISRDYAKNTVYLQMNSLKPEDTAVYYCAAYKPRPQYTDDDYWGQGTQVTVSS | high polyreactivity
QVQLVESGGGLVQAGASLRLSCAASGGTFLIYGRGWYRQAPGKERELVAAISRSGGSTYYADSVKGRFTISRDNAKNTVYLQMNSLKPEDTAVYYCAADSGYLSPYDYWGQGTQVTVSS | low polyreactivity
QVQLEESGGGVVQAGGSLRISCAASGIIFYRYTMGWYRQAPGKERELVAAIASRGGSTYYADSVKGRFTISRDNAKNTVYLQMNSLKPEDTAVYYCAAGARYGKVRYGYWGQGTQVTVSS | high polyreactivity
QVQLVESGGGLVQAGGSLRLICAASGSTFIWNSMGWYRQAPGKERELGATITGSGDRTTYADSVKGRFTISRDNAKNTVYLQMNSLKPEDTAVYYCAGDAYRWWVRYDYWGQGTQVTVSS | low polyreactivity
QVQLVESGGGLVQAGGSLRLSCAASGRTFSYYAMGWYRQAPAKERELVAAIRSTGSTNYADSVKGRFTISRDNAKNTVYLQMNSLKPEDTAVYYCAARKYYQRGYDYWGQGTQVTVSS | high polyreactivity
QVQLVESGGGLVQAGGSLRLSCAASGYIFYYNTMGWYRQAPGKERELVAAIRSSGGSTYYADSVKGRFTISRDNAKNTVYLQMNSLKPEDTAVYYCAARPYRTKLIYGYWGQGTQVTVSS | high polyreactivity
QVQLVEAGGGLVQAGGSLRLSCAASGSTFPYYTMGGYRQAPGKDRELVAAITWRGGRTYYADSVKGRFTISRDNAKNTVYLQMNSLKPEDTAVYYCAAKQKHTQQTGWKYEYWGQGTQVTVSS | high polyreactivity
QVQLVESGGGLVQAGGSLRLSCAASGSIFPYYAMGWYIQAPGKERELVAVITTSGGRTYYADSVKGRFTISRDNAKNTVYLQMNSLKPEDTAVYYCATDVRQGSGWRYYYWGQGTQVTVSS | high polyreactivity
